According to patent US20210347873A1 (SHANGHAI PHARMAEXPLORER, published 2021):

B1: L1D12 (antibody, V domains shown)
VH: QVQLVQSGGGLVQPGGSLRLSCAASGFTVSSNYMSWVRQAPGKGLEWVSVIYSGGSTYYADSVKGRFTISRDNSKNTLYLQMNSLRAEDTAVYYCARGFHDILTGYGMDVWGQGTTVTVSS
VL: SSELTQDPAVSVALGQTVRITCQGDSLRNYYAGWYQQKPGQAPVLVIYGKNNRPSGIPDRFSGSSSGNTASLTITGTQAEDEADYYCSSRDNSGTHLVEFGGGTKLTVL
notes: From a human naive scFv phage library; also called human BLyS antibody L1D12; LID12
B2: 2-1G11 (antibody, V domains shown)
VH: EVQLVESRGGVVQPGRSLRLSCAASGFTFSSYGMHWVRQAPGKGLEWVAVISYDGSNKYYADSVKGRFTISRDNSKNTLYLQMNSLRAEDAAVYYCARDRVDILTGYSIYGMDVWGQGTTVTVSS
VL: EIVMTQSPATLSLSPGERATLSCRASQSVSSYLAWYQQKPGQAPRLLIYDASKRATGIPARFSGSGSGTDFTLTISSLEPEDFAVYYCQQRSNWPLTFGGGTKVEIK
notes: From a human naive scFv phage library; also called human BLyS antibody 2-1G11
B3: L9G7 (antibody, V domains shown)
VH: QIQLVQSGAEVKKPGASVKVSCKASGYTFTSYGISWVRQAPGQGLEWMGWISAYNGNTNYAQKLQGRVTMTTDTSTSTAYMELRSLRSDDTAVYYCARTYYDILTGYYYYGMDVWGQGTTVTVSS
VL: EIVLTQSPGTLSLSPGERATLSCRTSQSVDTYLAWYQQKPGQAPRLLIYDASNRATGIPARFSGSGSGTDFTLTISSLEPEDFAVYYCQQRSNWPLTFGGGTKVEIK
notes: From a human naive scFv phage library; also called human BLyS antibody L9G7
B4: 97A3C2H4 (antibody, V domains shown)
VH: EVKLVESGGGLVQPGGSLKLSCAASGFTFSTYTMSWVRQTPEKRLEWVAYISYGGGSTSYPDTVKGRFTISRDNAKNTLYLQMSSLKSEDTAIYYCTRHVTVVENSMDYWGQGTSVTVSS
VL: DILLTQSPDILSVSPGERVSFSCRASQSIGTSIHWYQQRTNGSPRLLIKYVSESFSGTPSRFSGSGSGTAFTLTINSVESEDIADYYCQQTHSWPWTFGGGTKLEIK
notes: Mouse hybridoma antibody purified on Protein G
B5: L1D12 (antibody, human IgG1, V domains shown)
VH: QVQLVQSGGGLVQPGGSLRLSCAASGFTVSSNYMSWVRQAPGKGLEWVSVIYSGGSTYYADSVKGRFTISRDNSKNTLYLQMNSLRAEDTAVYYCARGFHDILTGYGMDVWGQGTTVTVSS
VL: SSELTQDPAVSVALGQTVRITCQGDSLRNYYAGWYQQKPGQAPVLVIYGKNNRPSGIPDRFSGSSSGNTASLTITGTQAEDEADYYCSSRDNSGTHLVEFGGGTKLTVL
notes: also called LID12
B6: 111D10D6G3 (antibody, V domains shown)
VH: QVQLQQPGAELVKPGASVKMSCKASGYTFTRHWITWVKQRPGQGLEWIGDIFPGSGSINYNEKFKSEATLTVEKSSSTAYMQLSSLTSEDSAVYYCARGDVDVWGTGTTVTVSS
VL: DIQMTQSPSSLSASLGERVSLTCRASQEIRGYLSWLQQKPNGTIKRLIYAASTLDSGVPKRFSATRSGSDFSLTISSLESEDFADYYCLQYASYPFTFGSGTKLEIK
notes: as for B4
B7: L9G7 (antibody, human IgG1, V domains shown)
VH: QIQLVQSGAEVKKPGASVKVSCKASGYTFTSYGISWVRQAPGQGLEWMGWISAYNGNTNYAQKLQGRVTMTTDTSTSTAYMELRSLRSDDTAVYYCARTYYDILTGYYYYGMDVWGQGTTVTVSS
VL: EIVLTQSPGTLSLSPGERATLSCRTSQSVDTYLAWYQQKPGQAPRLLIYDASNRATGIPARFSGSGSGTDFTLTISSLEPEDFAVYYCQQRSNWPLTFGGGTKVEIK
B8: 97A3C2H4 (antibody, V domains shown)
VH: EVKLVESGGGLVQPGGSLKLSCAASGFTFSTYTMSWVRQTPEKRLEWVAYISYGGGSTSYPDTVKGRFTISRDNAKNTLYLQMSSLKSEDTAIYYCTRHVTVVENSMDYWGQGTSVTVSS
VL: DILLTQSPDILSVSPGERVSFSCRASQSIGTSIHWYQQRTNGSPRLLIKYVSESFSGTPSRFSGSGSGTAFTLTINSVESEDIADYYCQQTHSWPWTFGGGTKLEIK
notes: Mouse hybridoma monoclonal antibody purified on Protein G
B9: 111D10D6G3 (antibody, V domains shown)
VH: QVQLQQPGAELVKPGASVKMSCKASGYTFTRHWITWVKQRPGQGLEWIGDIFPGSGSINYNEKFKSEATLTVEKSSSTAYMQLSSLTSEDSAVYYCARGDVDVWGTGTTVTVSS
VL: DIQMTQSPSSLSASLGERVSLTCRASQEIRGYLSWLQQKPNGTIKRLIYAASTLDSGVPKRFSATRSGSDFSLTISSLESEDFADYYCLQYASYPFTFGSGTKLEIK
notes: as for B8
B10: 8E7D9C7F5 (antibody, V domains shown)
VH: QVQLQQSGVELARPGASVKLSCKASGYTFTSYGISWVKQRTGQALEWIGEIYPRSGNTYYNEKFKGKATLTADKSSSTAYMELRSLTSEDSAVYFCARSGPITTLVATDYGMDYWGQGTSVTVSS
VL: DIVLTQSPASLAVSLGQRATISCRASKSVSTSSYSYMHWYQQKPGQPPKLLIKFASNLESGVPARFSGSGSGTDFTLNIHPVEEEDAATYYCQHSREFPYTFGGGTKLEIK
notes: as for B8

What follows are binders tested against T1, biotinylated hBLyS-ECD (human, UniProt Q9Y275 134-285, biotinylated with Biotin-X-X-NHS (molar ratio 7:1); sites not stated) (assay: competitive ELISA on biotinylated hBLyS-ECD; competitor L1D12).
T1 construct: also called biotinylated immunogen; BLyS protein
Protocol: The purified human BLyS antibody and hybridoma antibody were subjected to competitive enzyme-linked immunosorbent assay and the epitopes binding by different antibodies were analyzed.
Purified BLyS antibody was first diluted to a final concentration of 1.0 μg/mL with PBS, then aliquoted into a 96-well ELISA plate at 50 μL per well, and the plate was subsequently sealed with plastic film and incubated at 4° C. overnight. On the next day the plate was rinsed four times with the plate washing buffer [PBS buffer containing 0.05% (v/v) Tween20] and mixed with blocking solution [PBS buffer containing 0.05% (v/v) Tween20 and 1% (w/w) BSA], and then blocked at 37° C. for 1 hour. The blocking solution was removed, and the competitive antibody and IgG control were diluted to a final concentration of 40 μg/mL with PBS and then aliquoted into the 96-well ELISA plate at 50 μL per well. The biotinylated hBLyS-ECD was then diluted with PBS to a final concentration of 2 ng/mL and pipetted into the 96-well ELISA plate at 50 μL per well. The final concentration of competitive antibody and hBLyS-ECD was 20 μg/mL and 1 ng/mL, respectively. After incubation at 37° C. for 1 hour, the plate was rinsed four times with the plate washing buffer [PBS buffer containing 0.05% (v/v) Tween20]. 100 μL per well of HRP-labeled (horseradish peroxidase) streptavidin (purchased from Sigma) was added into the plate and the plate was incubated at 37° C. for 1 hour. The plate was then washed four times with the plate washing buffer [PBS buffer containing 0.05% (v/v) Tween20]. 100 μL of TMB substrate was aliquoted into each well and after incubation at room temperature for 5 minutes, 100 μL of stop solution (1.0 N HCl) was aliquoted into each well. A₄₅₀ₙₘ values were read by an ELISA plate reader (SpectraMax M5e, purchased from Molecular Device) and the results were shown in Tables 18A-18B. […] The data shown in the table is the inhibitory rate (%) of the binding level of the original antibody to hBLyS-ECD after addition of the competitive antibody.

Binder | inhibitory rate (%)
B1 | 94
B2 | 91
B3 | 97

Biological target: T2, cynomolgus BLyS (full length, arginine 132 mutated to histidine) on CHO-K1 cells (cynomolgus, UniProt Q9Y275 1-285 (human entry))
T2 construct: also called cyno BLyS; CHO-K1 cynoBLyS
T2 chain: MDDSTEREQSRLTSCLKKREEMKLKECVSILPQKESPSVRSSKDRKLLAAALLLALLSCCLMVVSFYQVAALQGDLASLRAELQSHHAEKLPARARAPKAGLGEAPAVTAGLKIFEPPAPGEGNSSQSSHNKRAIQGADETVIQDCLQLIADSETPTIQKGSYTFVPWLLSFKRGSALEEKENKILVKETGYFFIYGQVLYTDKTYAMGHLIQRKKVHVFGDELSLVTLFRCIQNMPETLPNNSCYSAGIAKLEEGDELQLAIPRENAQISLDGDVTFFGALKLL
Assay: flow cytometry (FACS) on CHO-K1 cynoBLyS cells, Alexa 488 secondary antibody
Protocol: The medium was aspirated completely, and the cells were rinsed once with PBS buffer (purchased from Invitrogen) and then treated with cell dispersion solution (TrypLE™ Express Enzyme, purchased from Life technology) and collected. The detailed steps are as follows: the cells were rinsed once with PBS buffer, after counting, the cells were diluted to 2×10⁶ cells/ml with PBS buffer, blocked with 2% (w/w) fetal bovine serum and incubated on ice for 30 minutes. 200 μL of which per well was aliquoted into a 96-well FACS plate and centrifuged at 2000 rpm at 4° C., then each 100 μL of the lead antibodies obtained from Embodiment 1 and 2 were aliquoted into each well and incubated on ice for 1 hour. […] After centrifuged and rinsed 3 times with FACS buffer, cells were suspended with 200 μL of FACS buffer and the results were detected and analyzed by FACS (FACS Calibur, purchased from BD). It was shown in Tables 12-13 that the lead antibody could bind to human BLyS protein on the cell surface and the lead antibody could cross-react with cynomolgus BLyS. The data in the table is MFI, the average fluorescence intensity of the cell population.

Binder | EC50 (read off the curve) [nM]
B4 | ~0.3
B5 | ~0.2
B6 | ~0.1
B7 | ~0.2

What follows are binders tested against T1, biotinylated hBLyS-ECD (assay: blocking ELISA: biotinylated hBLyS-ECD on coated BAFF R, antibody 0.0064 nM).
Protocol: BLyS antibody blocking the binding of the BLyS protein to its receptor BAFF R was detected by the receptor-ligand binding assay of BLyS protein.
BAFF R (purchased from R & D Systems) was aliquoted into 96-well ELISA plate at 50 ng per well, and the plate was sealed with plastic film and incubated overnight at 4° C. On the next day the plate was washed four times with the plate washing buffer [PBS buffer containing 0.05% (v/v) Tween20] and added with blocking solution [PBS buffer containing 0.05% (v/v) Tween20 and 1% (w/w) BSA], then blocked for 1 hour at room temperature. The blocking solution was removed and 50 μL per well of the lead antibodies prepared in Embodiment 1 and 2 were added followed by the addition of 50 μL per well of the biotinylated hBLyS-ECD prepared in Embodiment 2. After incubation for 1 hour at 37° C., the plate was washed four times with the plate washing buffer [PBS buffer containing 0.05% (v/v) Tween20]. 100 μL per well of HRP-labeled (horseradish peroxidase) avidin (purchased from Sigma) was added and incubated at 37° C. for 1 hour. The plate was then washed four times with the plate washing buffer [PBS buffer containing 0.05% (v/v) Tween20]. 100 μL of TMB substrate was aliquoted into each well and after incubation for 5 minutes at room temperature, then 100 μL of stop solution (1.0 N HCl) was aliquoted into each well. A₄₅₀ₙₘ values were read with an ELISA plate reader (SpectraMax 384plus, Molecular Device) and the results were shown in FIGS. 9A-9B and Table 15. It was shown in Table 15 that the binding of BLyS protein to its receptor BAFF R could be blocked by the BLyS antibody.

Binder | OD450 nm [OD450 nm]
B8 | 1.21
B9 | 1.29
B10 | 1.38
